Measurements published in the supplement of paper PMC12764529.
± gives the half width of the 95% confidence interval.

Columns and labels:
[1] = folding stability dG unfold (combined trypsin and chymotrypsin); higher = more stable
How it was run: (§1)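 Only designs with AlphaFold2 dimer inter-PAE above 15 were retained; each was a mini-protein under 80 residues with no cysteine, in a PA-tagged cDNA display construct. After digestion with trypsin and chymotrypsin and sequencing, K50 was inferred by Bayesian fitting of counts, and unfolding free energy was derived per protease or combined against a sequence-predicted unfolded-state K50 and a shared folded-state K50.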

[2] = folding stability dG unfold from trypsin proteolysis; higher = more stable
How it was run: as §1

[3] = folding stability dG unfold from chymotrypsin proteolysis; higher = more stable
How it was run: as §1

| Sequence | folding stability dG unfold [1] [kcal/mol] | folding stability dG unfold [2] [kcal/mol] | folding stability dG unfold [3] [kcal/mol] |
| --- | --- | --- | --- |
| SAGGPPGEEIPIMVRIKMRNPENGEEMELPITHTVKSKEDLKWAKKLVDEIAEEFREQGMKDVEIEIFSAGG [r13_360_TrROS] | 0.908 ± 0.15 | 0.47 ± 0.15 | 1.07 ± 0.21 |
| SAGGPPPDTTVTVTLTRTTPTQWLIEFPATGEVREIPRDPAASDEEAKELVKELAKEEGYNVNINLTSAGGS [r16_446_JUSTAS] | 0.812 ± 0.3 | 1.05 ± 0.081 | 0.438 ± 0.29 |
| SAGGPPSVWIPIEINFPDSPEQLLEEVENAAQEIADLFGIPVKIEVERNPKKGYATIWIRVDGKTIPISAGG [r13_845_TrROS] | 1.71 ± 0.22 | 1.66 ± 0.041 | 1.7 ± 0.11 |
| SAGGPPVTIMIRLPPLQEQLPPEWLEKLKNIRVPNGHPIKDIDVQPHNGRWVIMIKVDSPEQARDIIRSAGG [r13_269_TrROS] | 1.75 ± 0.13 | 1.66 ± 0.048 | 1.89 ± 0.053 |
| SAGGPPYYMIKIRYPDNGKEYEIPPGIKVHRDPNNEVYIMFRSPAAADDLVDEIAPTNGLRVEIEPFSAGGS [r8_131_TrROS] | 0.915 ± 0.3 | 0.945 ± 0.23 | 1.07 ± 0.24 |
| SAGGPRITITYPLPPGDIEKIEKLAKEALDNGDNVDVNIPHPNGWYVTLTVDPPNGKIEEVEWQPPDKSAGG [r13_873_TrROS] | 0.499 ± 0.12 | 0.571 ± 0.076 | 0.598 ± 0.061 |
| SAGGPSIPGEKIRELLEKGYSLEEIVEFLEKENIPIARIEGVEPHPNSITIVFYNPETGEKITAVIGSAGGS [r8_179_TrMRF] | 2.72 ± 0.14 | 2.02 ± 0.058 | 2.96 ± 0.081 |
| SAGGPVKLVKVQFINPETGEPVEISGPASKVLEIAEKLGLNVTSVTVIENPNTILVVVPGPNQLVVVTDSAG [r5_521_TrMRF] | 1.69 ± 0.11 | 1.82 ± 0.055 | 1.45 ± 0.018 |
| SAGGPVNKKELVTVPVYYDPETGKFVVKATYPTRPITVPTDETDPVEALARFGTLLEKVTGKPIDTFVGSAG [r5_251_TrMRF] | 0.288 ± 0.04 | -0.0487 ± 0.083 | 0.414 ± 0.098 |
| SAGGPVTFEAPLEELLKALPPELVRHASVEPLGEGERRFIATVELEDRRIEAYSDPERPGRVLVTLHFSAGG [r13_942_TrMRF] | 0.569 ± 0.12 | 0.332 ± 0.11 | 0.688 ± 0.12 |
| SAGGPVTTVSVSGFVLPDGSRALLVTVATYYPDGYVAVPPVLVLVYPNGESEASTSTLVVKVPGGALSAGGS [r16_505_TrMRF] | 2.79 ± 0.04 | 2.3 ± 0.056 | 3.008 ± 0.011 |
| SAGGQKTETFEFAFRKPDGSLYLVKITLIEKLPNEPNVYIAKVEVYKLNLVTGKPEKVGEFEVLLNLSAGGS [r8_65_TrMRF] | 4.96 ± 0.14 | 3.4 ± 0.13 | 5.04 ± 0.15 |
| SAGGQRIEFEVQPNPENGMIFIKVKFQQMEPDPNGNKETREITHTVMVKLPPGAKPGEKIEIDIPPNMSAGG [r13_450_TrROS] | 1.1 ± 0.39 | 0.859 ± 0.046 | 0.828 ± 0.25 |
| SAGGQRIEIKIKPGYFIMIKIRNPKNGETFRHFIPFKKPQEIEIPIPPNYEIEDIYIMPPKDMPDGMISAGG [r13_119_TrROS] | 2.15 ± 0.18 | 2.11 ± 0.058 | 2.28 ± 0.09 |
| SAGGRIEIDPNSMQIKIYDAEDGEKVEIPINMPPGQIKEIELDPDGKISIRMPMWGQTQELPADDIKSAGGS [r16_410_TrROS] | 0.793 ± 0.16 | -0.206 ± 0.061 | 1.22 ± 0.023 |
| SAGGRIVINLNPENGYLMISIRMPHRRYDPEDGKGKPEPMSMSIMFPPEEIEKFAEEFGMPIEIVPWSAGGS [r8_337_TrROS] | 1.56 ± 0.18 | 1.42 ± 0.071 | 1.4 ± 0.16 |
| SAGGSAAEETYESDGLTVTVRTERGPDGTVRVVVEVRDRDGPLLATLPFTFKAREDEGLSFSVPFPSAGGSA [r15_950_TrMRF] | 1.34 ± 0.076 | 1.28 ± 0.036 | 1.26 ± 0.099 |
| SAGGSAAGYAVLVRVEEVRLTSFRRRADGSLLEVDPDVELKLEVLAVFRIYPSPGDGWVVDPSDPASAGGSA [r15_162_TrMRF] | 3.53 ± 0.062 | 2.73 ± 0.057 | 3.827 ± 0.025 |

| Sequence | folding stability dG unfold [1] [kcal/mol] | folding stability dG unfold [2] [kcal/mol] | folding stability dG unfold [3] [kcal/mol] |
| --- | --- | --- | --- |
| SAGGSAALPIVEVLETEESSDGTVTILAKLEDGTVVTITVTVEVKPPPPPPPVDPANMSPERLAAVSAGGSA [r15_41_JUSTAS] | 0.566 ± 0.19 | 0.998 ± 0.08 | 0.181 ± 0.07 |
| SAGGSAAPEDTLVEEEVEIVTEETDPKLGGKKIVTTKVKRLIRYFPEKGELEVETVETETTVYPNESAGGSA [r15_517_JUSTAS] | 0.111 ± 0.1 | -0.644 ± 0.47 | 0.416 ± 0.084 |
| SAGGSAAPLVLPVRIYGPNENVTAEASEYDPGTGIVRLTVTHPDGTKTTLTFTGPAALLPPDADLNSAGGSA [r15_596_TrMRF] | 0.764 ± 0.056 | 0.611 ± 0.023 | 0.849 ± 0.066 |
| SAGGSAAPPVTVEVLPDGRIVITRGDAVASSVTPVPPDATITATFPATGETVTITRRAPEVTVTPASAGGSA [r15_235_JUSTAS] | 0.835 ± 0.097 | -0.616 ± 0.29 | 1.19 ± 0.017 |
| SAGGSAAPVPVGAELAAAAPGAAVTVELPDGVTATVTRVGDTLVVDVTRFSEPPLPVSSATATLPLSAGGSA [r15_558_JUSTAS] | 0.409 ± 0.05 | -0.369 ± 0.066 | 0.638 ± 0.028 |
| SAGGSAATVEVTRLPGGRYVVRLRNPDTDEEIVVELPVDASTTPEDVLEAARALVAELEEEGYTIESAGGSA [r15_1022_TrMRF] | 3.04 ± 0.058 | 2.92 ± 0.07 | 3.135 ± 0.024 |
| SAGGSAAVGTSKGANVVTVRVEELEDKVVVYRYDPATGTVRVIVIDKPTGKALETKTFPVLPDQDASAGGSA [r15_425_TrMRF] | 1.65 ± 0.049 | 1.01 ± 0.018 | 1.95 ± 0.047 |
| SAGGSADELLDKLGLPPDNIRKIKPVEPNPNGMRQLELEWPYKENGKEWRITIMYSPDGIMIDIEPSAGGSA [r15_813_TrROS] | 1.57 ± 0.1 | 0.834 ± 0.061 | 1.87 ± 0.053 |
| SAGGSADEVEITLELEVELAPGQKTLTFKLLNLPPGLKFEVEEVELKVVEEDGKLRVEATIRIKKDSAGGSA [r15_321_TrROS_Hall] | 3.72 ± 0.16 | 2.86 ± 0.17 | 4.34 ± 0.17 |
| SAGGSADIPSDWTVTPVSSSYDPATGTTTTEETVYDSKGNPQYKITVTTTFDPTTGTTTTTVTYNPSAGGSA [r15_1028_JUSTAS] | 2.17 ± 0.058 | 2.37 ± 0.066 | 2.054 ± 0.018 |
| SAGGSADLPPEVGSVTYSQNVPLDEIDEFIQEVIEKLGISPEEIKEIKVSRKTVPGSGVVSLTIVLSAGGSA [r15_934_JUSTAS] | 1.34 ± 0.13 | 1.46 ± 0.061 | 1.18 ± 0.072 |
| SAGGSADNLMFMFEFEFSFEWSNPDGEPMTMEVPITVMIPIPIPVPKATPEAMKDPEKAKEAQEEASAGGSA [r15_728_TrROS] | 3.39 ± 0.32 | 2.39 ± 0.22 | 3.51 ± 0.19 |
| SAGGSADNTDVKTEVVGFRLPGYEGLNFLINIQPKDKPKTIFASEAELPLFEEAGIPVVFTSSLPLSAGGSA [r15_783_TrMRF] | -0.131 ± 0.24 | -0.15 ± 0.29 | -0.0437 ± 0.43 |
| SAGGSADYYLIVIEIEKNGKKYKIVLVVSKEDLKKLEEEIKKKFPDVKIKIKVIKFPSKEEALKALSAGGSA [r15_889_TrROS_Hall] | 3.46 ± 0.12 | 2.97 ± 0.1 | 3.74 ± 0.054 |
| SAGGSAEEDEVVTIRAVLENGEVRELEVKLPEGTRIYIPGTGEVREVPFGDEVPVPANSDLLVEPVSAGGSA [r15_152_TrMRF] | -0.819 ± 0.62 | -0.106 ± 0.13 | -0.642 ± 0.25 |
| SAGGSAEEEEARRLAEELARRLEEEGYEIERVEVRVERLPDGTVRITVRVYRKDGKPVLELEITLPSAGGSA [r15_232_TrROS_Hall] | 4.97 ± 0.11 | 4.54 ± 0.19 | 4.99 ± 0.18 |
| SAGGSAEEEVYRVRVTVTYRNPETGEVVEEVELVIEVEKGKTVEEVARELAKKLNVDRVEVELVPPSAGGSA [r15_540_TrROS_Hall] | 4.27 ± 0.1 | 3.65 ± 0.11 | 4.52 ± 0.091 |
| SAGGSAEFKIEAEVLSKEVNPETGKPVVKVKIKIEKYNPETGKKEEKEIELELSEEELEKLLKELGSAGGSA [r2_357_TrMRF] | 3.13 ± 0.13 | 3.61 ± 0.23 | 2.93 ± 0.08 |
